Reference: patent US20110091994A1, “Methods for Screening Compounds for Treating and/or Preventing an Hepatitis C Virus Infection” (priority 2008, published 2011)
Read-outs that look alike come from different tables or passages of the source.

Legend:
HCV proteins = molecular target: T1, HCV proteins (Hepatitis C virus genotype 1b, UniProt Q9WMX2); assay: Validation by Y2H pairwise matrices; assay type: binding;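 also: yeast two-hybrid pairwise tests of interactions first found in Y2H screens of HCV bait proteins against human cDNA libraries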
T1 construct: expressed in transfected cells
Description: A comprehensive interactome map between HCV and cellular proteins was generated by Y2H screens. Twenty seven constructs encoding full-length HCV mature proteins or discrete domains were cloned using a recombination-based cloning system (10) (FIG. 6). Four independent screens were performed with each HCV bait protein, probing two distinct human cDNA libraries (Supplementary Methods). […] Two validation methods were used to assess the confidence of the IMAP Y2H dataset.

[1] = test system: HCV ORFs (Gal4-DB fusions); assay type: binding, HCV genotype 1b, isolate con1; settings: human protein listed by gene symbol; the value names the HCV protein it interacts with
[2] = molecular target: T2, HCV ORFs (Gal4-DB fusions) (Hepatitis C virus genotype 1b, UniProt Q9WMX2); assay type: binding, HCV genotype 1b, isolate con1; settings: human protein as prey; for IMAP Y2H IMAP2 (number of IST): HCV protein NS5A as bait
T2 construct: expressed in transfected cells; host or cells: Saccharomyces cerevisiae MAV203 (IMAP1) / AH109 (IMAP2)

[3] = molecular target: T3, GST-tagged viral proteins (Hepatitis C virus genotype 1b, UniProt Q9WMX2); assay: Validation by co-affinity purification (CoAP); assay type: binding, HCV genotype 1b, isolate con1; design: key: +: IMAP validation; −: not validated; NA: non assayable due to default of protein expression or to cellular protein directly interacting with GST; settings: interaction with HCV protein NS5A
T3 construct: expressed in transfected cells; host or cells: HEK-293T
T3 sequence (Q9WMX2 1973-2419): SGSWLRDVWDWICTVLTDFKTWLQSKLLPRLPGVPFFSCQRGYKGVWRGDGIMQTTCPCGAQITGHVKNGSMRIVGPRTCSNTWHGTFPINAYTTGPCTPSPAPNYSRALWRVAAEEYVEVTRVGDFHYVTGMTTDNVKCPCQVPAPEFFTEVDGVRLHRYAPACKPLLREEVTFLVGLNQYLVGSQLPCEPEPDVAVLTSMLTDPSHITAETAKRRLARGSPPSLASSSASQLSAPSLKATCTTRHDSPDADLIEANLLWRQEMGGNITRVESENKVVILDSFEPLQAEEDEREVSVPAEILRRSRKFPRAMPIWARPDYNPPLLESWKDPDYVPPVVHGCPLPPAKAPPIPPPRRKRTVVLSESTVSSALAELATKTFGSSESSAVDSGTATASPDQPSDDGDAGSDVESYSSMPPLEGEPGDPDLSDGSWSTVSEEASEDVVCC
Description: C. Validation of Y2H interactions by co-affinity purification assay. Nine co-AP positive assays are shown, representing: NS5A-SORBS2 (1), NS3-CALCOCO2 (2), NS5A-BIN1 (3), NS5A-MOBK1B (4), NS5A-EFEMP1 (5), NS3-PSMB9 and NS5A-PSMB9 (6), NS5A-PPPIRI3L (7), NS3-RASAL2 (8). After pull-down with GST tagged viral baits (+) or with negative control GST alone (−), cellular preys are identified with anti-Flag antibody. Anti-GST antibody identifies either GST alone or GST-tagged viral baits. Expression of cellular preys in cell lysate is controlled by anti-Flag (bottom panel). […]
A random pool of 59 IMAP Y2H interactions was chosen for CoAP assays. Cellular ORFs (interacting domains found in Y2H screens) were cloned by recombinational cloning from a pool of human cDNA library or the MGC cDNA plasmids using KOD polymerase (Toyobo) into pDONR207 (Invitrogen). After validation by sequencing, these ORFs were transferred to pCi-neo-3xFLAG gateway-converted, and HCV ORFs were transferred into pDEST27 (GST fusion in N-term). HEK-293T cells were then co-transfected (JetPei, Polyplus) by each pair of plasmid encoding interacting proteins. Controls are GST alone against 3xFLAG-tagged preys. Two days after transfection, cells were harvested and lysed (0.5% NP-40, 20 mM Tris-HCl (pH 8.0), 180 mM NaCl, 1 mM EDTA, and complete protease inhibitor cocktail). Cell lysates were cleared by centrifugation for 20 min at 13,000 rpm at 4° C. and soluble protein complexes were purified using Glutathione Sepharose 4B beads (GE Healthcare). Beads were then washed extensively four times with lysis buffer and proteins were separated on SDS-PAGE and transferred to nitrocellulose membrane. GST-tagged viral proteins and 3xFLAG-tagged cellular proteins were detected using standard immunoblotting techniques using anti-GST (Covance) and anti-FLAG M2 (Sigma) monoclonal antibodies (21).

[4] = validation of interaction with HCV protein CORE
[5] = validation of interaction with HCV protein NS3
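For IMAP Y2H IMAP1 (number of IST) in this document: yeast two-hybrid screens using HCV genotype 1b proteins fused to Gal4-DB as baits against prey cDNA libraries from human spleen and foetal brain, IMAP1 via transformation and IMAP2 via mating.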
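For IMAP Y2H IMAP2 (number of IST) in this document: yeast two-hybrid screens using HCV genotype 1b proteins fused to Gal4-DB as baits against prey cDNA libraries from human spleen and foetal brain, IMAP1 via transformation and IMAP2 via mating.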
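For Interaction with viral protein in this document: yeast two-hybrid screens using HCV genotype 1b proteins fused to Gal4-DB as baits against prey cDNA libraries from human spleen and foetal brain, IMAP1 via transformation and IMAP2 via mating.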

Molecule | Y2H matrices (HCV proteins; [4]) | Interaction with viral protein [1] | IMAP Y2H IMAP1 (number of IST) ([2]; HCV protein CORE as bait) | Y2H matrices (HCV proteins; [5]) | IMAP Y2H IMAP1 (number of IST) ([2]; HCV protein NS3 as bait) | CoAP [3] | IMAP Y2H IMAP2 (number of IST) [2]
CD68 (protein, UniProt P34810 22-354, looked up) Macrosialin: NDCPHKKSATLLPSFTVTPTVTESTGTTSHRTTKSHKTTTHRTTTTGTTSHGPTTATHNPTTTSHGNVTVHPTSNSTATSQGPSTATHSPATTSHGNATVHPTSNSTATSPGFTSSAHPEPPPPSPSPSPTSKETIGDYTWTNGSQPCVHLQAQIQIRVMYTTQGGGEAWGISVLNPNKTKVQGSCEGAHPHLLLSFPYGHLSFGFMQDLQQKVVYLSYMAVEYNVSFPHAAQWTFSAQNASLRDLQAPLGQSFSCSNSSIILSPAVHLDLLSLRLQAAQLPHTGVFGQSFSCPSDRSILLPLIIGLILLGLLALVLIAFCIIRRRPSAYQAL | + | CORE | 1 |  |  |  | 
BCAN (protein, UniProt Q96GW7 23-911, looked up) Brevican core protein: DVLEGDSSEDRAFRVRIAGDAPLQGVLGGALTIPCHVHYLRPPPSRRAVLGSPRVKWTFLSRGREAEVLVARGVRVKVNEAYRFRVALPAYPASLTDVSLALSELRPNDSGIYRCEVQHGIDDSSDAVEVKVKGVVFLYREGSARYAFSFSGAQEACARIGAHIATPEQLYAAYLGGYEQCDAGWLSDQTVRYPIQTPREACYGDMDGFPGVRNYGVVDPDDLYDVYCYAEDLNGELFLGDPPEKLTLEEARAYCQERGAEIATTGQLYAAWDGGLDHCSPGWLADGSVRYPIVTPSQRCGGGLPGVKTLFLFPNQTGFPNKHSRFNVYCFRDSAQPSAIPEASNPASNPASDGLEAIVTVTETLEELQLPQEATESESRGAIYSIPIMEDGGGGSSTPEDPAEAPRTLLEFETQSMVPPTGFSEEEGKALEEEEKYEDEEEKEEEEEEEEVEDEALWAWPSELSSPGPEASLPTEPAAQEESLSQAPARAVLQPGASPLPDGESEASRPPRVHGPPTETLPTPRERNLASPSPSTLVEAREVGEATGGPELSGVPRGESEETGSSEGAPSLLPATRAPEGTRELEAPSEDNSGRTAPAGTSVQAQPVLPTDSASRGGVAVVPASGDCVPSPCHNGGTCLEEEEGVRCLCLPGYGGDLCDVGLRFCNPGWDAFQGACYKHFSTRRSWEEAETQCRMYGAHLASISTPEEQDFINNRYREYQWIGLNDRTIEGDFLWSDGVPLLYENWNPGQPDSYFLSGENCVVMVWHDQGQWSDVPCNYHLSYTCKMGLVSCGPPPELPLAQVFGRPRLRYEVDTVLRYRCREGLAQRNLPLIRCQENGRWEAPQISCVPRRPARALHPEEDPEGRQGRLLGRWKALLIPPSSPMPGP |  | NS3 |  | + | 2 |  | 
VPS52 (protein, UniProt Q8N1B4 2-723, looked up) Vacuolar protein …: AAAATMAAAARELVLRAGTSDMEEEEGPLAGGPGLQEPLQLGELDITSDEFILDEVDVHIQANLEDELVKEALKTGVDLRHYSKQVELELQQIEQKSIRDYIQESENIASLHNQITACDAVLERMEQMLGAFQSDLSSISSEIRTLQEQSGAMNIRLRNRQAVRGKLGELVDGLVVPSALVTAILEAPVTEPRFLEQLQELDAKAAAVREQEARGTAACADVRGVLDRLRVKAVTKIREFILQKIYSFRKPMTNYQIPQTALLKYRFFYQFLLGNERATAKEIRDEYVETLSKIYLSYYRSYLGRLMKVQYEEVAEKDDLMGVEDTAKKGFFSKPSLRSRNTIFTLGTRGSVISPTELEAPILVPHTAQRGEQRYPFEALFRSQHYALLDNSCREYLFICEFFVVSGPAAHDLFHAVMGRTLSMTLKHLDSYLADCYDAIAVFLCIHIVLRFRNIAAKRDVPALDRYWEQVLALLWPRFELILEMNVQSVRSTDPQRLGGLDTRPHYITRRYAEFSSALVSINQTIPNERTMQLLGQLQVEVENFVLRVAAEFSSRKEQLVFLINNYDMMLGVLMERAADDSKEVESFQQLLNARTQEFIEELLSPPFGGLVAFVKEAEALIERGQAERLRGEEARVTQLIRGFGSSWKSSVESLSQDVMRSFTNFRNGTSIIQGALTQLIQLYHRFHRVLSQPQLRALPARAELINIHHLMVELKKHKPNF |  |  |  |  |  | + | 2
BCAR1 (protein, UniProt P56945 1-870, looked up) Breast cancer anti-estrogen …: MNHLNVLAKALYDNVAESPDELSFRKGDIMTVLEQDTQGLDGWWLCSLHGRQGIVPGNRLKILVGMYDKKPAGPGPGPPATPAQPQPGLHAPAPPASQYTPMLPNTYQPQPDSVYLVPTPSKAQQGLYQVPGPSPQFQSPPAKQTSTFSKQTPHHPFPSPATDLYQVPPGPGGPAQDIYQVPPSAGMGHDIYQVPPSMDTRSWEGTKPPAKVVVPTRVGQGYVYEAAQPEQDEYDIPRHLLAPGPQDIYDVPPVRGLLPSQYGQEVYDTPPMAVKGPNGRDPLLEVYDVPPSVEKGLPPSNHHAVYDVPPSVSKDVPDGPLLREETYDVPPAFAKAKPFDPARTPLVLAAPPPDSPPAEDVYDVPPPAPDLYDVPPGLRRPGPGTLYDVPRERVLPPEVADGGVVDSGVYAVPPPAEREAPAEGKRLSASSTGSTRSSQSASSLEVAGPGREPLELEVAVEALARLQQGVSATVAHLLDLAGSAGATGSWRSPSEPQEPLVQDLQAAVAAVQSAVHELLEFARSAVGNAAHTSDRALHAKLSRQLQKMEDVHQTLVAHGQALDAGRGGSGATLEDLDRLVACSRAVPEDAKQLASFLHGNASLLFRRTKATAPGPEGGGTLHPNPTDKTSSIQSRPLPSPPKFTSQDSPDGQYENSEGGWMEDYDYVHLQGKEEFEKTQKELLEKGSITRQGKSQLELQQLKQFERLEQEVSRPIDHDLANWTPAQPLAPGRTGGLGPSDRQLLLFYLEQCEANLTTLTNAVDAFFTAVATNQPPKIFVAHSKFVILSAHKLVFIGDTLSRQAKAADVRSQVTHYSNLLCDLLRGIVATTKAAALQYPSPSAAQDMVERVKELGHSTQQFRRVLGQLAAA | + | CORE | 1 |  |  |  | 
C12orf41 (protein, UniProt Q9H9L4 1-492, looked up) KAT8 regulatory NSL complex …: MNRIRIHVLPTNRGRITPVPRSQEPLSCAFTHRPCSHPRLEGQEFCIKHILEDKNAPFKQCSYISTKNGKRCPNAAPKPEKKDGVSFCAEHVRRNALALHAQMKKTNPGPVGETLLCQLSSYAKTELGSQTPESSRSEASRILDEDSWSDGEQEPITVDQTWRGDPDSEADSIDSDQEDPLKHAGVYTAEEVALIMREKLIRLQSLYIDQFKRLQHLLKEKKRRYLHNRKVEHEALGSSLLTGPEGLLAKERENLKRLKCLRRYRQRYGVEALLHRQLKERRMLATDGAAQQAHTTRSSQRCLAFVDDVRCSNQSLPMTRHCLTHICQDTNQVLFKCCQGSEEVPCNKPVPVSLSEDPCCPLHFQLPPQMYKPEQVLSVPDDLEAGPMDLYLSAAELQPTESLPLEFSDDLDVVGDGMQCPPSPLLFDPSLTLEDHLVKEIAEDPVDILGQMQMAGDGCRSQGSRNSEKASAPLSQSGLATANGKPEPTSIS |  | NS3 |  | + | 1 |  | 
NAP1L2 (protein, UniProt Q9ULW6 1-460, looked up) Nucleosome assembly protein …: MAESENRKELSESSQEEAGNQIMVEGLGEHLERGEDAAAGLGDDGKCGEEAAAGLGEEGENGEDTAAGSGEDGKKGGDTDEDSEADRPKGLIGYVLDTDFVESLPVKVKYRVLALKKLQTRAANLESKFLREFHDIERKFAEMYQPLLEKRRQIINAIYEPTEEECEYKSDSEDCDDEEMCHEEMYGNEEGMVHEYVDEDDGYEDYYYDYAVEEEEEEEEEDDIEATGEENKEEEDPKGIPDFWLTVLKNVDTLTPLIKKYDEPILKLLTDIKVKLSDPGEPLSFTLEFHFKPNEYFKNELLTKTYVLKSKLAYYDPHPYRGTAIEYSTGCEIDWNEGKNVTLKTIKKKQKHRIWGTIRTVTEDFPKDSFFNFFSPHGITSNGRDGNDDFLLGHNLRTYIIPRSVLFFSGDALESQQEGVVREVNDAIYDKIIYDNWMAAIEEVKACCKNLEALVEDIDR |  |  |  |  |  | + | 4
C1orf94 (protein, UniProt Q6P1W5 1-598, looked up) Uncharacterized protein …: MRGGGGCVLALGGQRGFQKERRRMASGNGLPSSSALVAKGPCALGPFPRYIWIHQDTPQDSLDKTCHEIWKRVQGLPEASQPWTSMEQLSVPVVGTLRGNELSFQEEALELSSGKDEISLLVEQEFLSLTKEHSILVEESSGELEVPGSSPEGTRELAPCILAPPLVAGSNERPRASIIVGDKLLKQKVAMPVISSRQDCDSATSTVTDILCAAEVKSSKGTEDRGRILGDSNLQVSKLLSQFPLKSTETSKVPDNKNVLDKTRVTKDFLQDNLFSGPGPKEPTGLSPFLLLPPRPPPARPDKLPELPAQKRQLPVFAKICSKPKADPAVERHHLMEWSPGTKEPKKGQGSLFLSQWPQSQKDACGEEGCCDAVGTASLTLPPKKPTCPAEKNLLYEFLGATKNPSGQPRLRNKVEVDGPELKFNAPVTVADKNNPKYTGNVFTPHFPTAMTSATLNQPLWLNLNYPPPPVFTNHSTFLQYQGLYPQQAARMPYQQALHPQLGCYSQQVMPYNPQQMGQQIFRSSYTPLLSYIPFVQPNYPYPQRTPPKMSANPRDPPLMAGDGPQYLFPQGYGFGSTSGGPLMHSPYFSSSGNGINF |  | NS3 |  | + | 1 |  | 
